The source of these data is the RNAGym collection of RNA variant scans (doi:10.1073/pnas.2313332121).

The chains are these.
B1: TPR t1 (parent)
chain: GACCAAUCUGCCCUCAGAGCUCGAGAACAUCUUCGGAUGCAGAGGAGGCAGGCUUCGGUGGCGCGAUAGCGCCAACGUCCUCAACCUCCAAUGCAUCCCACCACAUGAUGAUGCCUGAAGAGCCUUGGUUUUUUG

The data set covers variants of B1. The data set is described as follows: polymerase ribozyme fitness, log enrichment relative to wild type (log ratio); higher = more active; in vitro selection for triplet polymerase activity. The method in brief: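 Mutant libraries for each subunit of a heterodimeric triplet polymerase ribozyme were made by PCR and then transcribed. Each library underwent one round of in vitro selection in triplicate: annealing with a biotinylated primer, the partner subunit and triplets, frozen incubation at −7 °C, gel excision of extended constructs, streptavidin-bead capture and RT-PCR. Input and output libraries were Illumina-sequenced, and only genotypes with ≥10 input reads and ≥1 read per output were kept. Fitness is the logarithm, base 2, of genotype enrichment over wild-type enrichment, computed from inverse-variance-weighted replicate averages.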
As to A29G A105U, the “polymerase ribozyme fitness (log ratio)” value was -4.23.

As for A29G U87C G113U A121C, the “polymerase ribozyme fitness (log ratio)” value was -3.46.

Regarding A29C A37C C53A G110U, the “polymerase ribozyme fitness (log ratio)” value was -5.11.

U30C A37C: the “polymerase ribozyme fitness (log ratio)” value is -3.86.

With C28U G61A C64U A121C, the “polymerase ribozyme fitness (log ratio)” value is -4.25.

A29U C72U A84C U87C U112C: the “polymerase ribozyme fitness (log ratio)” value is -1.31.

A29G A46G: the “polymerase ribozyme fitness (log ratio)” value was -1.09.

Consider A29G G60A C86U, for which the “polymerase ribozyme fitness (log ratio)” value is -2.06.

As to A29U C62G, the “polymerase ribozyme fitness (log ratio)” value is -2.45.

In the case of A29G C40A C99G A111G, the “polymerase ribozyme fitness (log ratio)” value was -7.69.

Regarding A29U C53A U54C C76U C85A U131C, the “polymerase ribozyme fitness (log ratio)” value is -3.17.

With C28G U59G U81C G117C, the “polymerase ribozyme fitness (log ratio)” value is -6.32.

Turning to A29G G63A C88A, the “polymerase ribozyme fitness (log ratio)” value was -2.37.

With A29C G61U A90G U116G, the “polymerase ribozyme fitness (log ratio)” value is -5.84.

As for A29G A111C, the “polymerase ribozyme fitness (log ratio)” value is -0.114.

As to A29U G47U, the “polymerase ribozyme fitness (log ratio)” value was -3.05.

As to C28G U38A C86U, the “polymerase ribozyme fitness (log ratio)” value was -5.02.

C28U G60A C72G G110C C115G G120U: the “polymerase ribozyme fitness (log ratio)” value is -7.22.

Consider A29U U32C G61C C70G C98A C114U, for which the “polymerase ribozyme fitness (log ratio)” value is -5.96.

As to C28U C53U U92C U106A U133A, the “polymerase ribozyme fitness (log ratio)” value was -3.09.

Regarding A29G A50G C99G A105G C124A, the “polymerase ribozyme fitness (log ratio)” value is -7.1.

On to A29G G39U C72G, for which the “polymerase ribozyme fitness (log ratio)” value was -3.09.

As for A29U C62U A74C U81C C124A, the “polymerase ribozyme fitness (log ratio)” value was -1.11.

Consider C28U, for which the “polymerase ribozyme fitness (log ratio)” value is -1.69.

On to C28U G93A, for which the “polymerase ribozyme fitness (log ratio)” value is -1.92.

On to C28U C82A C114U, for which the “polymerase ribozyme fitness (log ratio)” value is -3.98.

In the case of A29G C72A, the “polymerase ribozyme fitness (log ratio)” value is -1.27.

On to C28U A37C C76G, for which the “polymerase ribozyme fitness (log ratio)” value was -3.54.

Take A29C G71A C88G C123A U131C: the “polymerase ribozyme fitness (log ratio)” value is -4.27.

Consider A29U G61C G110U, for which the “polymerase ribozyme fitness (log ratio)” value is -3.06.

As for U30A A41C G113A C124A, the “polymerase ribozyme fitness (log ratio)” value is -5.47.

Take A29G G69U: the “polymerase ribozyme fitness (log ratio)” value is -0.507.

In the case of C28U U87A, the “polymerase ribozyme fitness (log ratio)” value was -2.17.

Regarding C28G U32C C56G G117A, the “polymerase ribozyme fitness (log ratio)” value was -5.54.

On to C28U U55C G71A, for which the “polymerase ribozyme fitness (log ratio)” value is -3.34.

As to C28U G63C U78C U92G C99G A103U G110A, the “polymerase ribozyme fitness (log ratio)” value is -4.52.

For the variant C28U C64U U87A, the “polymerase ribozyme fitness (log ratio)” value was -1.96.

Regarding A29G A91G G113A, the “polymerase ribozyme fitness (log ratio)” value was -2.3.

As for A29U C62U C89G, the “polymerase ribozyme fitness (log ratio)” value was -3.

On to A29G C53A A91G C98A A111G, for which the “polymerase ribozyme fitness (log ratio)” value was -7.

Take A29G C86A U112A C123G: the “polymerase ribozyme fitness (log ratio)” value was 0.207.

Regarding U30A G48C G63U C124A, the “polymerase ribozyme fitness (log ratio)” value is -5.12.

With A29G A50U C73A, the “polymerase ribozyme fitness (log ratio)” value was -2.36.

Regarding C28U A108G, the “polymerase ribozyme fitness (log ratio)” value is -4.76.

Turning to A29C C70U, the “polymerase ribozyme fitness (log ratio)” value was -2.29.

As for A29U C76U U78A, the “polymerase ribozyme fitness (log ratio)” value was -2.22.

With A29U C114G, the “polymerase ribozyme fitness (log ratio)” value is -4.29.

As to C28U A29G, the “polymerase ribozyme fitness (log ratio)” value was -5.97.

For the variant A29G C56G, the “polymerase ribozyme fitness (log ratio)” value was -1.53.

Regarding A29U G44U G60A G113U A118G U131G, the “polymerase ribozyme fitness (log ratio)” value is -5.8.

Regarding A29U G77C U112G G127C, the “polymerase ribozyme fitness (log ratio)” value was -5.41.

For A29G G35C C98G, the “polymerase ribozyme fitness (log ratio)” value was -3.4.

Consider A29U G48U C73G U112A, for which the “polymerase ribozyme fitness (log ratio)” value was -0.987.

On to A29U C82A, for which the “polymerase ribozyme fitness (log ratio)” value is -2.3.

With A29G C124U, the “polymerase ribozyme fitness (log ratio)” value turned out to be 1.18.

In the case of A29G C124A, the “polymerase ribozyme fitness (log ratio)” value worked out at 0.584.

With A29U C49U C64U U106A C115A U132C, the “polymerase ribozyme fitness (log ratio)” value is -2.46.

With C28U C72U C82U, the “polymerase ribozyme fitness (log ratio)” value is -1.52.

Turning to A29U U92G U109A C115U U130A, the “polymerase ribozyme fitness (log ratio)” value is -5.3.

As for A29U A50U U78A G93C, the “polymerase ribozyme fitness (log ratio)” value was -4.11.

For the variant C28G U78C, the “polymerase ribozyme fitness (log ratio)” value was -2.53.

Turning to A29U G69C C98U G113C, the “polymerase ribozyme fitness (log ratio)” value was -4.71.

Consider A29G A41C A119U U133G, for which the “polymerase ribozyme fitness (log ratio)” value was -2.94.

As for A29U G120U, the “polymerase ribozyme fitness (log ratio)” value is -0.652.

Regarding C28U C62U, the “polymerase ribozyme fitness (log ratio)” value was -2.6.

Regarding C28U C49G U129A, the “polymerase ribozyme fitness (log ratio)” value is -5.15.

Take A29G U38G A43U A90C G113U U125C: the “polymerase ribozyme fitness (log ratio)” value was -3.96.

Turning to C28U U59C G61A C123U, the “polymerase ribozyme fitness (log ratio)” value was -6.95.

A29G C72G C80G A105C C123G: the “polymerase ribozyme fitness (log ratio)” value was -7.14.

Consider A29G C104A, for which the “polymerase ribozyme fitness (log ratio)” value is -2.84.

Consider U30A G61A C88U, for which the “polymerase ribozyme fitness (log ratio)” value was -5.29.

As for A29G U116G, the “polymerase ribozyme fitness (log ratio)” value was -2.77.

On to A29U C76G C86A, for which the “polymerase ribozyme fitness (log ratio)” value is -2.31.

For the variant C28U C123G, the “polymerase ribozyme fitness (log ratio)” value is -0.0468.

On to U30A C104A, for which the “polymerase ribozyme fitness (log ratio)” value was -6.42.

Regarding C28U C82A, the “polymerase ribozyme fitness (log ratio)” value was -2.3.

With C28U U55A G71C, the “polymerase ribozyme fitness (log ratio)” value was -2.75.

As to A29G G35C G45A A100G U112C U116C, the “polymerase ribozyme fitness (log ratio)” value is -7.03.

In the case of A29U G48C G113C U129A, the “polymerase ribozyme fitness (log ratio)” value is -4.71.

For A29U A43U, the “polymerase ribozyme fitness (log ratio)” value was -3.3.

For the variant A29U C53G U81A A121U U132A, the “polymerase ribozyme fitness (log ratio)” value was -1.75.

On to A29G C49G C85G, for which the “polymerase ribozyme fitness (log ratio)” value is -2.46.

C28U G47U C97U C101U A103G G117C: the “polymerase ribozyme fitness (log ratio)” value is -7.85.
